Laboratory results: patent publication US20190194358A1 (ARIZONA BOARD OF REGENTS A BODY CORPORATE OF THE STATE OF …, published 2019)
Like-named read-outs stand apart in the source and are kept apart here. Ends that are not written are not given here.

Key:
[1] = target: T1, Tumor Necrosis Factor-alpha (UniProt P01375 77-233); experiment: SPR (Biacore A100), TNF-α captured, equilibrium response over a concentration series
T1 construct: Immobilised on pipette tips or SPR chips (amine coupling or biotin capture); also called TNF-α; TNF-alpha
T1 sequence (P01375 77-233 limits assumed): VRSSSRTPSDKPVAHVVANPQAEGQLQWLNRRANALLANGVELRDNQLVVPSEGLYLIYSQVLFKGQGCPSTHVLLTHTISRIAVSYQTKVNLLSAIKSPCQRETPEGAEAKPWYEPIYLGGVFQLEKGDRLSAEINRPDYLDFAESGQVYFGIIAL
Protocol: (§1) Point-mutant libraries were prepared in 96-well stock plates From the stock plate, peptides were diluted to 50 μM concentration in Biacore HBS-EP buffer (GE Healthcare, Piscataway, N.J.) containing 1 mg/ml carboxymethyl-dextran (Sigma-Aldrich, St. Louis, Mo.) to reduce non-specific binding to the CM-5 SPR chip surface. TNF-αt was captured on a CM-5 chip surface at different capture levels on spots 1, 2, 4, and 5 across all four flow cells corresponding to a 40-200 RU range of predicted Rₘₐₓ binding responses. Spot 3 contained only immobilized neutravidin and served as a reference spot.
(§2) Purified point-mutant affinities were measured on the Biacore A100 using SPR equilibrium binding response across a series of peptide concentrations on an SPR chip with TNF-α captured as described above.

[2] = target: T1, Tumor Necrosis Factor-alpha; experiment: SPR, kinetic fits of sensorgrams
[3] = target: T1, Tumor Necrosis Factor-alpha; experiment: SPR equilibrium binding (Biacore A100), TNF-α captured on the chip
[4] = target: T1, Tumor Necrosis Factor-alpha; experiment: SPR; reference TNF1 lead peptide
Protocol: as §1, §2

[5] = target: T1, Tumor Necrosis Factor-alpha; experiment: SPR-derived binding energies
[6] = target: T1, Tumor Necrosis Factor-alpha; experiment: SPR (Biacore A100), TNF-α captured, equilibrium response over a concentration series; remark: listed apart in the source
Protocol: as §1, §2

[7] = target: T1, Tumor Necrosis Factor-alpha; experiment: SPR (Biacore A100), TNF-α captured, equilibrium response over a concentration series; the cell prints '93', read as 9.3 (decimal point lost)
Protocol: as §1, §2

[8] = target: T1, Tumor Necrosis Factor-alpha; experiment: fluorescence anisotropy; fluorescence anisotropy
[9] = target: T1, Tumor Necrosis Factor-alpha; experiment: SPR, kinetic fits of sensorgrams (printed 'kon' in a sentence on the off-rate)
[10] = target: T1, Tumor Necrosis Factor-alpha; experiment: SPR, kinetic fits of several sensorgrams; Kd from kinetic fits, not equilibrium responses
[11] = target: T2, Gal80 (UniProt P04387 1-435, limits assumed); experiment: SPR, gal80 immobilised on the chip; Kd from on and off rates
T2 construct: Cy3/Cy5 labelled on arrays, immobilised for SPR and ELISA
T2 sequence (looked up): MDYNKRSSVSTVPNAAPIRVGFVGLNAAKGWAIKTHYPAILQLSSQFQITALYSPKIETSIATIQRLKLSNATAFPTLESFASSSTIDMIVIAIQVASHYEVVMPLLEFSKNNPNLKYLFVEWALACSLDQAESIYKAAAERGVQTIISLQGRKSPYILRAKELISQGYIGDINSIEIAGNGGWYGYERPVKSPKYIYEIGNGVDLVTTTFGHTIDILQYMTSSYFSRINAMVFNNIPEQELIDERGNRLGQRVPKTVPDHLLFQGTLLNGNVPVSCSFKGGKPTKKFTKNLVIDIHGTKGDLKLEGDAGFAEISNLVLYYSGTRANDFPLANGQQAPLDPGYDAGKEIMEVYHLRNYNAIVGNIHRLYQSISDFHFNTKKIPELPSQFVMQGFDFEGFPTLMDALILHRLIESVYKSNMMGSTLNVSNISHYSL

[12] = target: T3, SC1 Transcription factor 19 (human, UniProt Q9Y242); experiment: Invitrogen ProtoArray Human Protein Microarray v4.0; biotinylated synbody, fluorescently labelled streptavidin; fluorescence intensity
T3 construct: GST fusion on the array
T3 sequence (looked up): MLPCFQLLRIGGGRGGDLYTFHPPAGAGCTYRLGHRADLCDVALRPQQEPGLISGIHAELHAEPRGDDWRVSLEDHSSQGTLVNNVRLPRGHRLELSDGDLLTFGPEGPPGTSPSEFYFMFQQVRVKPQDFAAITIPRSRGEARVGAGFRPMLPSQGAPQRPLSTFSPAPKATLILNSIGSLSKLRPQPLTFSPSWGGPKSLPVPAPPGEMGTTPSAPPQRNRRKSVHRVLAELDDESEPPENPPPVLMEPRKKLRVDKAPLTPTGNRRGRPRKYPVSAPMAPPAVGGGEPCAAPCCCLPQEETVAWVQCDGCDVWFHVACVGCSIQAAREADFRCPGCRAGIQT
Protocol: (§3) The prescribed cover slip was placed over the array and adjusted to remove air bubbles. The array was incubated in a 50 ml conical tube, printed side up, for 1.5 hours at 4 C without shaking. The array was then removed from the conical tube inserted diagonally into the array chamber, kept on ice. 8 ml probing buffer was added to the chamber wall. The cover slip was removed and the array was incubated in probing buffer for 1 minute on ice. The probing buffer was decanted and drained. Two further washings were performed adding 8 ml probing buffer, incubating on ice for 1 minute, and decanting and draining. 5 nM fluorescently labeled streptavidin diluted in 6 ml probing buffer was incubated on the array for 30 minutes on ice in the dark, after which the solution was decanted and drained. Three wash steps were performed, each by adding 8 ml probing buffer, incubating for 1 minute on ice, decanting, and draining. The array was removed from the chamber, centrifuged at 800×g for 5 minutes at room temperature. The array was dried in the dark for 60 minutes at room temperature, after which it was scanned using a fluorescent microarray scanner and data was taken and analyzed.

[13] = target: T4, GRP58 (human, UniProt P30101 25-505, limits assumed); experiment: as above
T4 construct: GST fusion adsorbed on a nitrocellulose slide
T4 sequence (looked up): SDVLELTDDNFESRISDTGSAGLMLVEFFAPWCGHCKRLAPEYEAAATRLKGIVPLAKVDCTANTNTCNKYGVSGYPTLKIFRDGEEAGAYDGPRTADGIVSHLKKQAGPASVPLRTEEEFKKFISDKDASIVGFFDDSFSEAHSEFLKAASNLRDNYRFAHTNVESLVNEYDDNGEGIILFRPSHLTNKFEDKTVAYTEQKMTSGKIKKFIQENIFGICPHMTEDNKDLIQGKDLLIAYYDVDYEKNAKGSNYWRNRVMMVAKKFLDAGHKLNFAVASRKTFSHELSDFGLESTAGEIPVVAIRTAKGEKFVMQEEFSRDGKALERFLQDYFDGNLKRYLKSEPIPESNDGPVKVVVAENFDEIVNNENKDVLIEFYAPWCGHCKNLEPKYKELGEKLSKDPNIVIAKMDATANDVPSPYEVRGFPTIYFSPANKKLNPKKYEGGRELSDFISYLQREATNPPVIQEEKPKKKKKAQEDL
Protocol: as §3

[14] = target: T5, PSMA3 (human, UniProt P25788); experiment: as above
T5 construct: GST fusion on the array
T5 sequence (P25788 whole entry, the tested form may be a part): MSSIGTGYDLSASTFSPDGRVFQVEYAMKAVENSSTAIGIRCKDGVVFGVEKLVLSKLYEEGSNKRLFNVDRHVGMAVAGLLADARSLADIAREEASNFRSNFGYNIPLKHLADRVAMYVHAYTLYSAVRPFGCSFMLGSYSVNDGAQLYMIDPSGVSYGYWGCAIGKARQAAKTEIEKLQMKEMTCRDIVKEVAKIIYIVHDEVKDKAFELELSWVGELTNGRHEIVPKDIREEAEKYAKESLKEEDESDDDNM
Protocol: as §3

[15] = target: T6, transferrin (human, UniProt P02787 20-698); experiment: SPR (Biacore A-100), biotinylated transferrin captured on Neutravidin, unpurified peptide injected for 60 s
T6 construct: also called TRF; pooled human transferrin (Sigma)
T6 sequence (P02787 20-698 limits assumed): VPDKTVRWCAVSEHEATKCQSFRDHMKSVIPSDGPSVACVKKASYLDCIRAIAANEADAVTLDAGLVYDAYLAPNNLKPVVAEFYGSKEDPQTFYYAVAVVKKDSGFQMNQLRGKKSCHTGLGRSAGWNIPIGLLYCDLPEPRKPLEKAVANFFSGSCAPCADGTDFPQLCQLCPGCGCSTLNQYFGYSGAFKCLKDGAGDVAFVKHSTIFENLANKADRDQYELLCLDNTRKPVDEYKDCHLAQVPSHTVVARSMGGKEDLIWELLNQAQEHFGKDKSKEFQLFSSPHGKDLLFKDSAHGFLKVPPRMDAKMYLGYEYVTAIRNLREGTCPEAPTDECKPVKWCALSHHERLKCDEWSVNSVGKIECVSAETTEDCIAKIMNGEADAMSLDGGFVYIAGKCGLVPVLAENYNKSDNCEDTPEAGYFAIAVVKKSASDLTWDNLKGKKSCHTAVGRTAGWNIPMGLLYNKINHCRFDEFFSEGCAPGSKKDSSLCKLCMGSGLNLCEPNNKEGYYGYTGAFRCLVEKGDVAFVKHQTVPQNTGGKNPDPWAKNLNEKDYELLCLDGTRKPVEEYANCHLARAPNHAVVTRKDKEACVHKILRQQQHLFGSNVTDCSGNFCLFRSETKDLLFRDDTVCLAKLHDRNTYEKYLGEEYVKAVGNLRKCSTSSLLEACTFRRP

[16] = target: T6, transferrin; experiment: as above; remark: listed apart in the source
[17] = target: T6, transferrin; experiment: as above; remark: listed apart in the source
[18] = target: T6, transferrin; experiment: as above; remark: listed apart in the source
[19] = target: T6, transferrin; experiment: as above; remark: listed apart in the source
[20] = target: T6, transferrin; experiment: as above; remark: listed apart in the source
[21] = target: T6, transferrin; experiment: as above; remark: listed apart in the source
[22] = target: T6, transferrin; experiment: as above; remark: listed apart in the source
[23] = target: T6, transferrin; experiment: as above; remark: listed apart in the source
[24] = target: T1, Tumor Necrosis Factor-alpha; experiment: SPR (Biacore T-100), TNF-α amine-coupled to a CM5 chip, synbody concentration series
Protocol: Candidate TNF-α binding synbodies were screened by surface plasmon resonance (SPR) on a Biacore T-100 SPR instrument to verify binding for TNF-α. A CM5 chip was activated using standard amine coupling chemistry and TNF-α was immobilized. Each synbody was prepared in HBS—N buffer with excess carboxymethyl dextran added to the running buffer to minimize non-specific binding to the chip surface.

[25] = target: T6, transferrin; experiment: SPR (Biacore T100), transferrin immobilised (9758 RU), steady state affinity fit
Description: (§4) Affinity plots were generated for each peptide and fit using a steady state affinity model.

[26] = target: T6, transferrin; experiment: SPR (Biacore T100), transferrin immobilised
Description: as §4

[27] = target: T6, transferrin; experiment: affinity characterisation of Example 29 (SPR; format for the purified peptides not stated)
[28] = target: T6, transferrin; experiment: reference TRF26 lead peptide
[29] = target: T6, transferrin; experiment: reference TRF26 lead peptide; remark: listed apart in the source
[30] = target: T6, transferrin; experiment: affinity characterisation of Example 29 (SPR; format for the purified peptides not stated); remark: listed apart in the source

FERDPLMMPWSFLQSRQGSC [TNF1 lead peptide]
Binding ΔG [1]: -5.21 kcal/mol
Kd [1]: 160 µM
koff [2]: 1.6 s⁻¹

B1: TNF1 D4S+P5Y+S11K triple mutant (peptide)
peptide: FERSYLMMPWKFLQSRQGSC
notes: also called D4S + P5Y + S1IK (so in the source)
Fold Change (Ka mutant / Ka TNF1) [3]: 23 fold
Kd Fold-Change Relative to Lead [4]: 23 fold
difference in observed binding energy relative to P5Y+S11K [5]: -0.72 kcal/mol
Kd [6]: 7 µM
Observed Binding ΔG [6]: -7.03 kcal/mol

FERYPLMMPWKFLQSRQGSC [TNF1 D4Y+S11K double mutant]
Kd [7]: 9.3 µM
Kd Fold-Change Relative to Lead [4]: 17 fold
Observed Binding ΔG [6]: -6.67 kcal/mol

FERSYLKMPWKFLQSRQGSC [TNF1-opt (D4S+P5Y+M7K+S11K quadruple mutant)]
Kd [8]: 1.1 µM
koff [9]: 0.2 s⁻¹
Kd Fold-Change Relative to Lead [4]: 100 fold
difference in observed binding energy relative to D4S+P5Y+S11K [5]: -0.94 kcal/mol
difference in observed binding energy relative to P5Y+M7K [5]: -1.73 kcal/mol
difference in observed binding energy relative to P5Y+S11K [5]: -1.66 kcal/mol
Kd [6]: 1.6 µM
Observed Binding ΔG [6]: -7.97 kcal/mol
Kd [10]: 0.7 µM

B2: BP2 on dsDNA (peptide)
affinity element BP2: EGEWTEGKLSLRGSC
modifications: C-terminal Cys joined through SMCC to the DNA linker
notes: also called BP2 alone conjugated to the double-stranded DNA linker
Kd [11]: 0.982 µM

B3: SYN21-22 (designed binder)
peptide 1: QYHHFMNLKRQGRAQAYGSG
peptide 2: HAYKGPGDMRRFNHSGMGSG
modifications: also: both chains joined by C-terminus to the amines of a branching Lys, Lys-Cys linker with biotinylated Cys thiol
notes: Lysine linker followed by cysteine; the thiol of the cysteine biotinylated for the protein array; also called anti-TRF synbody
binding result [12]: binds
binding result [13]: binds
binding result [14]: binds

B4: peptide of FIG. 60B (peptide)
peptide: NIRMLLRFTVFPAQKLIGSC
notes: Unpurified library peptide (~50 to 70% pure)
binding result [15]: binds

WMDDIDAPQDEWWVFHHGSC (Unpurified library peptide) [peptide of FIG. 60C]
binding result [16]: binds

DFLWSKSGILSHASWNHGSC (Unpurified library peptide) [peptide of FIG. 60D]
binding result [17]: binds

KMRTITYYHLQAILKQRGSC (Unpurified library peptide) [peptide of FIG. 60F]
binding result [18]: binds

DNSRRSAKQRIFMHVDLGSC (Unpurified library peptide) [peptide of FIG. 60G]
binding result [19]: binds

AMMRMDMAGLNKIVFHQGSC (Unpurified library peptide) [peptide of FIG. 60I]
binding result [20]: binds

DRDTPWETTNKTEEGIEGSC (Unpurified library peptide) [peptide of FIG. 60J]
binding result [21]: binds

QENDQQSFGLGGMMGQAGSC (Unpurified library peptide) [peptide of FIG. 60K]
binding result [22]: binds

TEDNDYMVVSMVVTMEPGSC (Unpurified library peptide) [peptide of FIG. 60L]
binding result [23]: binds

B5: TNF1-TNF4-KC-stBu (designed binder)
peptide 1: MKSIIPMSVAQHQGPIKGSG
peptide 2: FMNYPIKVPILVVPIGRGSG
modifications: not fully specified (C-terminus, bridges); also: chain 1 C-terminus on Lys α-amine, chain 2 C-terminus on same Lys ε-amine (branched dimer)
notes: Lysine linker followed by Cys(StBu); also called TNFa1-TNFa 4- KC(stBu)
binding result [24]: no binding

B6: TBPM023 (peptide)
peptide: AHKVVPQRQMRHAYSRYGSC
notes: Clone from mRNA display on a doped TRF26 library; also called TBPMO23
Kd [25]: 11.6 µM
fold improvement in affinity relative to TRF26 [26]: > 10 fold

AHKVVPQRQIRFAYNRYGSC [TRF26 H12F point-mutant]
Binding ΔG [27]: -6.85 kcal/mol
Kd [27]: 9.7 µM
Kd Fold-Change Relative to Lead [28]: 8.8 fold

AHKVVYQRQIRHAYNRYGSC [TRF26 P6Y point-mutant]
Binding ΔG [27]: -6.93 kcal/mol
Kd [27]: 8.6 µM
Kd Fold-Change Relative to Lead [28]: 10 fold

B7: TRF26 P6Y+H12F double mutant (peptide)
peptide: AHKVVYQRQIRFAYNRYGSC
notes: also called P6Y + 1112F (so in the source)
Kd Fold-Change Relative to Lead [29]: 190 fold
Kd [30]: 0.5 µM
